Data set [1] concerns the molecule itself. Put plainly: SAXS; solution scattering with ensemble analysis (EOM), monomer and dimer pools; enzyme without ligands (2.5, 5.0 and 10.0 mg/ml) or with UDP or UDP-GalNAc.
Data set [2] deals with T1, polypeptide N-acetylgalactosaminyltransferase 2 (GalNAc-T2), K75-Q571 (human, UniProt Q10471 75-571).
T1 construct: GalNAc-T2 (polypeptide N-acetylgalactosaminyltransferase 2), residues K75-Q571: catalytic domain, flexible linker and lectin domain; Theoretical MW 56.7 kDa (D1:p10); source: expression plasmid pPICZαAgalnact2 (K75-Q571)
The data set is described as follows: other fluorescence titration; tryptophan fluorescence quenching of GalNAc-T2 (1 µM) by peptides at 1-500 µM; 25 mM Tris, 150 mM NaCl, pH 7.5, 25 °C; with 400 µM UDP and 1 mM MnCl2; single binding site model. The note with it: both partners purified.

Data set [3] addresses T1, polypeptide …. The data set is described as follows: other fluorescence titration; tryptophan fluorescence quenching of GalNAc-T2 (1 µM) by peptides at 1-500 µM; 25 mM Tris, 150 mM NaCl, pH 7.5, 25 °C; no UDP/Mn2+; single binding site model. The note with it: both partners purified.

Where no end group is shown, it is not given here.

As usually defined, the stoichiometry N is a count of units in the complex or per binding partner. A word on the Kd: it is the free concentration of one partner at which half of the binding sites on the other are occupied at equilibrium, for simple one-to-one binding.

T1 sequence (Q10471 75-571): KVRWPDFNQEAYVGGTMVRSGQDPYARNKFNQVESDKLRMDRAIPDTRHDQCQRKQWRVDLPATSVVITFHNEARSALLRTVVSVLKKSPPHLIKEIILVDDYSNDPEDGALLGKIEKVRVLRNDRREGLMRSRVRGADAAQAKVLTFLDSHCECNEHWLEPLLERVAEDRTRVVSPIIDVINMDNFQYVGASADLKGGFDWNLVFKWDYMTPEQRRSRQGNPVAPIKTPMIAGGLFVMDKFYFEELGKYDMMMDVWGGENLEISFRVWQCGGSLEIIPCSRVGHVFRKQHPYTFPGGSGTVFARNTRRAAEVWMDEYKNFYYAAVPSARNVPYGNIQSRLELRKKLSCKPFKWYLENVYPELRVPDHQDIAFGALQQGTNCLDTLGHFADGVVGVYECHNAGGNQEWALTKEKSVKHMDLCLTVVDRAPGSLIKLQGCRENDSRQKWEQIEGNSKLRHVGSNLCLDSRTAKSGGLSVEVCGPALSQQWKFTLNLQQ

B1: polypeptide N-acetylgalactosaminyltransferase 2 (GalNAc-T2), K75-Q571 (enzyme)
chain: not shown
notes: GalNAc-T2, residues K75-Q571, catalytic domain, flexible linker and lectin domain; Monomers and dimers coexist in solution by SAXS; also called wild-type (WT) enzyme
Consider B1, for which, in data set [1], the “stoichiometry N” value came out at 2.

B2: MUC5AC-13 glycopeptide (peptide)
peptide: GTTPSPVPTTSTT(GalNAc)SA
notes: Made on Rink amide resin, so the C-terminus is probably an amide (surmised); source: synthetic peptide (Fmoc solid-phase synthesis on Rink Amide MBHA resin, HPLC purified)
For B2, the equilibrium dissociation constant (Kd) was 5 ± 1 µM in data set [2] and 8 ± 3 µM in data set [3].

B3: MUC5AC peptide (naked) (peptide)
peptide: GTTPSPVPTTSTTSA
notes: peptide named after mucin MUC5AC; Made on Rink amide resin, so the C-terminus is probably an amide (surmised); source: synthetic peptide (Fmoc solid-phase synthesis on Rink Amide MBHA resin, HPLC purified)
With B3, the Kd in data set [2] was 31 ± 16 µM; in data set [3], 7 ± 3 µM.

B4: MUC5AC-3-13 diglycosylated peptide (peptide)
peptide: GTT(GalNAc)PSPVPTTSTT(GalNAc)SA
modifications: not fully specified (C-terminus)
notes: as for B2
In the case of B4, the Kd amounted to 17 ± 9 µM in data set [2] and 11 ± 4 µM in data set [3].

These data come from PMC4432651, “Dynamic interplay between catalytic and lectin domains of GalNAc-transferases modulates protein O-glycosylation” (Nature Communications, 2015).
